The Human Domainome abundance scans (Beltran et al. 2025)
± gives the uncertainty stated by the source.

B1: TOX high mobility group box family member 3, residues 256 to 323; numbered along this chain, O15405 (parent)
chain: QKPVSAYALFFRDTQAAIKGQNPNATFGEVSKIVASMWDSLGEEQKQVYKRKTEAAKKEYLKALAAYR

Variants of: B1
Assay: abundance fitness (aPCA) (normalised: wild type 0, dead -1); higher = more abundant; growth selection in yeast, the domain comes from the species named
Settings: Homo sapiens

Going from V34C to V34F, the abundance fitness falls from -0.137 ± 0.093 to -0.956 ± 0.17.

V34Q and V34P are within error of each other in abundance fitness: -0.954 ± 0.38 for the first, -0.689 ± 0.11 for the second.

First: R68P
Second: R68L
The abundance fitness of the first is higher: 0.297 ± 0.066 for the first, -0.126 ± 0.087 for the second.

R68W and R68V are within error of each other in abundance fitness: -0.322 ± 0.22 for the first, -0.355 ± 0.063 for the second.

First: R68T
Second: R68E
The abundance fitness of the first is lower: -0.007 ± 0.078 for the first, 0.197 ± 0.058 for the second.

Y7P and Y7W are within error of each other in abundance fitness: -0.452 ± 0.16 for the first, -0.462 ± 0.098 for the second.

Compared with Y7I, Y7R is higher in abundance fitness: -0.48 ± 0.14 for the first, -0.244 ± 0.042 for the second.

Going from Q15V to Q15Y, the abundance fitness rises from -0.173 ± 0.057 to 0.367 ± 0.34.

Compared with Q15P, Q15S is higher in abundance fitness: -1.08 ± 0.19 for the first, -0.538 ± 0.18 for the second.

Q47Y and Q47N are within error of each other in abundance fitness: 0.029 ± 0.13 for the first, 0.102 ± 0.095 for the second.

Q47H and Q47A are within error of each other in abundance fitness: -0.232 ± 0.1 for the first, -0.101 ± 0.075 for the second.

Q47C and Q47K are within error of each other in abundance fitness: -0.195 ± 0.061 for the first, -0.048 ± 0.087 for the second.

First: Q47S
Second: A63G
The abundance fitness of the first is lower: -0.079 ± 0.054 for the first, 0.201 ± 0.044 for the second.

First: A63V
Second: A63P
The abundance fitness of the first is lower: -0.212 ± 0.055 for the first, 0.111 ± 0.048 for the second.

First: A63Q
Second: A63C
The abundance fitness of the first is higher: 0.119 ± 0.064 for the first, -0.105 ± 0.089 for the second.

Going from A55W to A55T, the abundance fitness rises from -0.297 ± 0.058 to -0.041 ± 0.064.

A55G and A55R are within error of each other in abundance fitness: -0.022 ± 0.051 for the first, -0.083 ± 0.046 for the second.

Compared with A55C, A55E is higher in abundance fitness: -0.246 ± 0.095 for the first, 0.076 ± 0.059 for the second.

A55Q and S36M are within error of each other in abundance fitness: -0.001 ± 0.077 for the first, -0.097 ± 0.057 for the second.

S36W and S36C are within error of each other in abundance fitness: -0.671 ± 0.13 for the first, -0.317 ± 0.24 for the second.

S36H and S36R are within error of each other in abundance fitness: -0.065 ± 0.11 for the first, -0.114 ± 0.056 for the second.

S36A and S36D are within error of each other in abundance fitness: 0.005 ± 0.036 for the first, -0.03 ± 0.096 for the second.

S36Q and S5D are within error of each other in abundance fitness: 0.164 ± 0.065 for the first, 0.101 ± 0.074 for the second.

S5K and S5G are within error of each other in abundance fitness: -0.166 ± 0.14 for the first, -0.091 ± 0.052 for the second.

First: A16E
Second: A16K
The abundance fitness of the first is higher: 0.158 ± 0.076 for the first, 0.009 ± 0.067 for the second.

Going from A16D to L64G, the abundance fitness rises from 0.068 ± 0.12 to 0.241 ± 0.05.

L64K and L64S are within error of each other in abundance fitness: 0.205 ± 0.06 for the first, 0.128 ± 0.057 for the second.

L64F and L64A are within error of each other in abundance fitness: -0.273 ± 0.095 for the first, -0.093 ± 0.093 for the second.

L64I and L64V are within error of each other in abundance fitness: 0.146 ± 0.1 for the first, 0.131 ± 0.05 for the second.

W38E and W38H are within error of each other in abundance fitness: -0.653 ± 0.12 for the first, -0.727 ± 0.45 for the second.

W38C and W38K are within error of each other in abundance fitness: -0.743 ± 0.11 for the first, -0.799 ± 0.16 for the second.

Going from W38R to A8W, the abundance fitness rises from -0.918 ± 0.12 to -0.252 ± 0.098.

A8R and A8V are within error of each other in abundance fitness: -0.027 ± 0.044 for the first, -0.123 ± 0.056 for the second.

A8L and M37S are within error of each other in abundance fitness: -0.235 ± 0.065 for the first, -0.265 ± 0.056 for the second.

First: M37H
Second: M37K
The abundance fitness of the first is lower: -0.227 ± 0.085 for the first, 0.037 ± 0.065 for the second.

K46H and K46F are within error of each other in abundance fitness: -0.836 ± 0.24 for the first, -0.913 ± 0.19 for the second.

Going from K46V to K46C, the abundance fitness falls from -0.437 ± 0.054 to -0.714 ± 0.18.

First: K46E
Second: G28A
The abundance fitness of the first is lower: -1.05 ± 0.19 for the first, -0.096 ± 0.065 for the second.

First: R51D
Second: R51W
The abundance fitness of the first is higher: 0.101 ± 0.083 for the first, -0.079 ± 0.057 for the second.

Going from R51V to R51F, the abundance fitness falls from -0.072 ± 0.055 to -0.256 ± 0.066.

Going from A25P to A25V, the abundance fitness rises from -0.874 ± 0.15 to -0.076 ± 0.067.

First: A25T
Second: A25N
The abundance fitness of the first is higher: -0.363 ± 0.082 for the first, -0.677 ± 0.089 for the second.

Going from A25R to G42S, the abundance fitness rises from -0.088 ± 0.052 to 0.086 ± 0.048.

Compared with G42M, G42H is higher in abundance fitness: -0.613 ± 0.068 for the first, -0.075 ± 0.11 for the second.

Compared with G42V, F10A is lower in abundance fitness: -0.59 ± 0.079 for the first, -0.981 ± 0.31 for the second.

F10E and F10R are within error of each other in abundance fitness: -0.635 ± 0.12 for the first, -0.751 ± 0.1 for the second.

F10I and F10K are within error of each other in abundance fitness: -0.98 ± 0.34 for the first, -0.946 ± 0.17 for the second.

Compared with F10N, I33L is higher in abundance fitness: -0.916 ± 0.45 for the first, -0.016 ± 0.047 for the second.

Going from I33R to I33G, the abundance fitness falls from -0.134 ± 0.054 to -0.402 ± 0.067.

Compared with I33W, I33Y is higher in abundance fitness: -0.507 ± 0.1 for the first, -0.174 ± 0.11 for the second.

Going from I33H to S40I, the abundance fitness rises from -0.324 ± 0.1 to 0.435 ± 0.11.

First: S40N
Second: S40V
The abundance fitness of the first is higher: 0.005 ± 0.1 for the first, -0.167 ± 0.058 for the second.

S40G and S40T are within error of each other in abundance fitness: 0.009 ± 0.052 for the first, 0.099 ± 0.061 for the second.

Compared with S40D, S40Q is higher in abundance fitness: -0.223 ± 0.11 for the first, 0.003 ± 0.069 for the second.

First: S40R
Second: K52S
The abundance fitness of the first is higher: -0.004 ± 0.05 for the first, -0.145 ± 0.04 for the second.

First: K52Q
Second: K52N
The abundance fitness of the first is lower: -0.291 ± 0.071 for the first, -0.133 ± 0.067 for the second.

K52W and K52G are within error of each other in abundance fitness: -0.617 ± 0.1 for the first, -0.474 ± 0.072 for the second.

First: K52E
Second: K52T
The abundance fitness of the first is higher: -0.219 ± 0.07 for the first, -0.426 ± 0.065 for the second.

Going from K52I to K52Y, the abundance fitness rises from -0.652 ± 0.081 to -0.28 ± 0.073.

First: K52A
Second: A65V
The abundance fitness of the first is lower: -0.368 ± 0.055 for the first, -0.049 ± 0.048 for the second.

Compared with A65N, A65Y is lower in abundance fitness: 0.098 ± 0.16 for the first, -0.48 ± 0.38 for the second.

A65E and A65T are within error of each other in abundance fitness: 0.113 ± 0.047 for the first, 0.081 ± 0.093 for the second.

Going from A65P to A65W, the abundance fitness falls from 0.117 ± 0.069 to -0.082 ± 0.079.

Going from E29H to E29D, the abundance fitness rises from -0.501 ± 0.082 to -0.174 ± 0.087.

E29P and E29R are within error of each other in abundance fitness: -0.802 ± 0.18 for the first, -0.558 ± 0.068 for the second.

Compared with E29A, E29L is lower in abundance fitness: -0.326 ± 0.09 for the first, -0.832 ± 0.099 for the second.

R12M and R12H are within error of each other in abundance fitness: -0.052 ± 0.063 for the first, 0.062 ± 0.15 for the second.

R12D and R12W are within error of each other in abundance fitness: -0.526 ± 0.23 for the first, -0.587 ± 0.12 for the second.

A6H and A6Q are within error of each other in abundance fitness: -0.597 ± 0.37 for the first, -0.185 ± 0.17 for the second.

Compared with A6P, A6M is lower in abundance fitness: 0.054 ± 0.059 for the first, -0.316 ± 0.1 for the second.

P3C and P3E are within error of each other in abundance fitness: -0.342 ± 0.076 for the first, -0.199 ± 0.2 for the second.

P3A and P3R are within error of each other in abundance fitness: -0.213 ± 0.057 for the first, -0.157 ± 0.053 for the second.

Compared with P3K, P3M is lower in abundance fitness: -0.035 ± 0.072 for the first, -0.296 ± 0.096 for the second.

First: P3Q
Second: P3D
The abundance fitness of the first is lower: -0.292 ± 0.096 for the first, 0.375 ± 0.15 for the second.

Compared with P3F, P3S is lower in abundance fitness: 0.125 ± 0.081 for the first, -0.052 ± 0.046 for the second.

First: L9K
Second: L9P
The abundance fitness of the first is higher: -0.425 ± 0.13 for the first, -1.08 ± 0.39 for the second.

First: L9A
Second: L9I
The abundance fitness of the first is lower: -0.042 ± 0.064 for the first, 0.233 ± 0.13 for the second.

Going from A66I to A66M, the abundance fitness rises from -0.333 ± 0.15 to -0.097 ± 0.068.

A66H and A66N are within error of each other in abundance fitness: 0.124 ± 0.088 for the first, 0.135 ± 0.075 for the second.

First: A66S
Second: A66K
The abundance fitness of the first is higher: 0.061 ± 0.052 for the first, -0.221 ± 0.19 for the second.

A66R and A66Q are within error of each other in abundance fitness: 0.056 ± 0.05 for the first, 0.093 ± 0.06 for the second.

Compared with T53N, T53A is higher in abundance fitness: -0.104 ± 0.056 for the first, 0.136 ± 0.053 for the second.

T53H and T53Y are within error of each other in abundance fitness: 0.12 ± 0.091 for the first, 0.276 ± 0.094 for the second.

With T53E the abundance fitness was 0.257 ± 0.063.
